B1: LINE1-full (parent)
chain: UACGUAGGUGGUUUUCCCCUGAUAGUGCUAAGGGGGCCUGGAAGUUUGGACUGGGCAGAGCUCAACACAGCGUGGCAAAGUGGCUGUGGCUAGACUGCCUCUCUGGAUUCCUCGUCACUCAGCAGGGCAUCUCUGAGAGAAAUGCC

The data set covers variants of B1. Kind of data set: self-cleavage, relative activity (ratio to wild type); higher = more cleavage; in vitro, sequencing; the parent is a self-cleaving ribozyme.
As for C68U A141G, the self-cleavage turned out to be 0.3.
As to A69G C123G, the self-cleavage was 0.84.
With C68U G122U, the self-cleavage amounted to 0.21.
Regarding C68G A141G, the self-cleavage is 0.04.
For the variant C68U U112C, the self-cleavage was found to be 0.06.
Under A67U A136U stands 0.12; under A67U A136G, 0.2.
In the case of A69G A117G, the self-cleavage came out at 0.5.
As for A69G A117U, the self-cleavage was 0.64.
With A67G U91C the figure was 0.16.
Regarding C68A C146U, the self-cleavage turned out to be 0.06.
With A69G U96A the figure was 0.04; with A69G U96C, 0.16; with A69G A121G, 0.6.
In the case of A69G A121U, the self-cleavage is 0.62.
Take A69G A121C: the self-cleavage is 0.51.
In the case of A67U U108A, the self-cleavage stood at 0.16.
Take A67U A107G: the self-cleavage was 0.
Regarding A69G A124G, the self-cleavage amounted to 0.32.
For the variant A67G U132C, the self-cleavage was found to be 0.62.
Under C68A U73C stands 0.05; under A69G C133A, 0.47; under A69G A142U, 0.35.
Turning to A69G A142G, the self-cleavage is 0.5.
For C68U G74A, the self-cleavage was determined as 0.2.
In the case of A69C U130C, the self-cleavage stood at 0.36.
With A69G A140G the figure was 0.36; with A69G A140U, 0.47; with A67G U109C, 0.16.
Regarding A67U U73C, the self-cleavage amounted to 0.18.
Under A67U A141G stands 0.13.
As for C68U A140G, the self-cleavage is 0.16.
For the variant C68U A140U, the self-cleavage came to 0.22.
Under A67G U115C stands 0.55.
Regarding A67G U115A, the self-cleavage worked out at 0.61.
Consider A67G U115G, for which the self-cleavage was 1.22.
Under A69G U73C stands 0.59.
Regarding A67U U81A, the self-cleavage worked out at 0.07.
Consider A69C C71A, for which the self-cleavage came to 0.16.
As to A69G G88C, the self-cleavage was 0.06.
Under A67U stands 0.11; under A67U U130A, 0.13; under A69G U102A, 0.93.
As to A69G U102C, the self-cleavage is 0.47.
Take A69C A117G: the self-cleavage came out at 0.11.
In the case of A69C, the self-cleavage stood at 0.07.
Regarding A69G, the self-cleavage worked out at 0.5.
Take C68G A121C: the self-cleavage came out at 0.03.
Under A67U A121G stands 0.15; under A67U A121C, 0.2.
As for A67U U134A, the self-cleavage worked out at 0.08.
With A69G A138G the figure was 0.56.
A69G G139U: the self-cleavage was 0.36.
Turning to A67U G75A, the self-cleavage was 0.09.
Under A67G G137A stands 0.64; under A67G U134C, 0.56; under A67U U112A, 0.13.
Take A67U A142G: the self-cleavage worked out at 0.15.
Regarding A67U A142U, the self-cleavage was 0.14.
With A67G U96C, the self-cleavage was 0.
For the variant A67G U96A, the self-cleavage amounted to 0.06.
Under A67U A77G stands 0.17.
With A67U A77U, the self-cleavage was found to be 0.04.
C68A A124G: the self-cleavage worked out at 0.05.
Consider C68U G88A, for which the self-cleavage was 0.05.
Turning to A69G G125U, the self-cleavage is 0.3.
A69G C128A: the self-cleavage was 0.14.
With A67U U104A the figure was 0.03.
As for A67U U104C, the self-cleavage turned out to be 0.25.
With A67U C103A the figure was 0.15; with A69C U104C, 0.22; with A67G G126A, 0.58.
Take A67U C84U: the self-cleavage turned out to be 0.02.
With A67U C71U the figure was 0.02.
On to A67U U143C, for which the self-cleavage was 0.2.
On to A69G G122A, for which the self-cleavage was found to be 0.4.
Regarding A67U U119C, the self-cleavage is 0.19.
A67U C131A: the self-cleavage was 0.13.
With C68U U81A the figure was 0.18; with C68U U81C, 0.18; with C68U U108C, 0.32.
For C68U U108A, the self-cleavage came to 0.2.
For A67G U81C, the self-cleavage is 0.35.
Consider A67G U143G, for which the self-cleavage was determined as 0.37.
As for A69G G114A, the self-cleavage was 0.99.
A67U U87C: the self-cleavage is 0.21.
In the case of C68U A142G, the self-cleavage worked out at 0.14.
With A69G A79C, the self-cleavage was 0.17.
Regarding A69G G72A, the self-cleavage was 0.54.
For the variant C68U C123G, the self-cleavage came out at 0.1.
Consider A69G A107G, for which the self-cleavage is 0.37.
Take A67U U115C: the self-cleavage was 0.34.
As to A69C A142G, the self-cleavage was found to be 0.11.
Under C68U A124U stands 0.28; under C68U U109A, 0.21; under A67U A69U, 0.04.
As for A69G A136G, the self-cleavage amounted to 0.42.
With A69G A136U the figure was 0.45; with A69G C103A, 0.43; with A67G U100C, 0.4.
With A67G U130C the figure was 0.65.
As for A67G U130A, the self-cleavage came out at 0.54.
In the case of A69C A77U, the self-cleavage is 0.09.
As for A69G C98U, the self-cleavage came out at 0.04.
As to A69G C131A, the self-cleavage worked out at 1.01.
Take A69G C145U: the self-cleavage is 0.55.
As to A69G C146U, the self-cleavage turned out to be 0.51.
Under A69G A129U stands 0.58.
Take A67U C128U: the self-cleavage stood at 0.1.
With A69G G86A the figure was 0.03; with A67G U104C, 0.96.
For C68U A117G, the self-cleavage stood at 0.12.
With C68U A117U, the self-cleavage amounted to 0.25.
Take A69G A78U: the self-cleavage worked out at 0.63.
Under C68U A129G stands 0.06; under A67U U102A, 0.11.
Under A67U U102C stands 0.1; under A69G U91A, 0.16.
Take A67U G88U: the self-cleavage came to 0.02.
Regarding A67U U109C, the self-cleavage came out at 0.04.
For the variant A67U U109A, the self-cleavage turned out to be 0.11.
In the case of A69G C118A, the self-cleavage came out at 0.51.
As to A69G C118U, the self-cleavage worked out at 0.2.
In the case of A67U A117U, the self-cleavage is 0.1.
As for A67U U85C, the self-cleavage came out at 0.01.
Under A69G U85C stands 0.51; under A69C U112C, 0; under A67G U119C, 1.07.
A67G U119A: the self-cleavage was 0.31.
For the variant A67U G74A, the self-cleavage is 0.08.
In the case of C68A U109C, the self-cleavage came to 0.06.
Under A69G U81G stands 0; under A69G G82A, 0.68; under A67U A140U, 0.08.
Take A67U A140G: the self-cleavage was found to be 0.09.
For the variant C68A A69G, the self-cleavage stood at 0.07.
Under A67U C133U stands 0.1; under A67U A79U, 0.21.
Turning to A67U A79G, the self-cleavage is 0.18.
As to A67U G105U, the self-cleavage was determined as 0.12.
For the variant A67U A94U, the self-cleavage is 0.05.
Consider A69C A138G, for which the self-cleavage was 0.16.
On to A67U A124C, for which the self-cleavage was found to be 0.17.
Regarding A67U A124G, the self-cleavage worked out at 0.02.
Under A69C G93A stands 0.01; under C68U U115A, 0.2.
For A69G G74A, the self-cleavage came out at 0.49.
On to A67G U87A, for which the self-cleavage was determined as 0.12.
A67G U102A: the self-cleavage amounted to 0.99.
Regarding A67G U102C, the self-cleavage was 0.58.
As for A69G C95A, the self-cleavage stood at 0.
For A69G C95U, the self-cleavage was 0.06.
For C68U U134C, the self-cleavage was found to be 0.17.
With A69C U119A the figure was 0.04; with C68A U87A, 0.01; with A69G A141G, 0.44.
As to A69C U143A, the self-cleavage is 0.07.
Take A69C U143G: the self-cleavage is 0.
Under A67G G125U stands 0.39; under A69G U104A, 0.2; under A69G U104C, 0.71.
A67U C146A: the self-cleavage is 0.14.
With C68U U87C, the self-cleavage was 0.02.
On to A67G U112A, for which the self-cleavage came out at 0.53.
With A67G U112C the figure was 0.39; with A67U U96A, 0.02; with C68U A77G, 0.24.

For the origin of these results see the RNAGym collection of RNA variant scans (doi:10.7554/elife.90254).
